Assay: yeast display, Sf9 membrane polyspecificity reagent, FACS + sequencing; frameworks hold sequencing errors
Method in brief: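 A synthetic nanobody library was expressed on Saccharomyces cerevisiae BJ5465 by galactose induction for 36–48 hours. The library was stained for 1 hour at 4 °C with 10% biotinylated, detergent-solubilized Sf9 membrane reagent and enriched with streptavidin microbeads before FACS. Low and high (top ~1%) gates were set on anti-HA fluorescence for expression and streptavidin fluorescence for reagent binding, and each polyreactivity label reflects the gate of origin.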

Sequence | polyreactivity (PSR sort gate)
QVQLVESGGGLVQAGGSLRLTSADSGRTFYKYAMGWYIQAPGKERELVAANSQSGGSTYYADSVNGRFTISRDNAKNTVYLQMNSLKPEDTAVYYCAARRLPRKERKLYYWGQGSQVTVSS | high polyreactivity
QVQLVESGGGLVQAGGSLRLTSADTGFNFGSYAMGWSRQAHGKEREFVAAISSNGGNTYYADSVKGRFTISRDNAKNTVYLEINSLKPEDTAVSYCAARYPSGTRKWYGYWGQGTQVTVSS | high polyreactivity
QVQLVESGGGLVQAGGSLRVICAASGSIGRYAMGWSRQAPGKERELVAAISSSGGSTYYADSVKGRFTISRDNAKNTVYLQMNSLKPEDTAGYYCAACPGAQEDDYWGPGTQVTVSS | high polyreactivity
QVQLVESGGGLVQAGGSLRVSCAASGFIFGLYAMGWYRQAPGKERELVATISWDGGSTYYADSVKGRFTISRDNAKNTVYLQMNSLKPEDTAVYYCAATYLYRSPYVPMDYWGQGSQVTVSS | low polyreactivity
QVQLVESGGGLVQAGGSLRVSCAASGFIFSYSAMGWYRQAPGKERELVAAISRSGGRTYYADSVKGRFTISRDNAKNTVYLQMNSLKPEDTAVYYCAAPVSLRPIYDYWGHGTQVTVSS | high polyreactivity
QVQLVESGGGLVQAGGSLRVSCAASGFTFPYSAMGWYRQAPGKERELVAAIDWTGGSTYYADSVKGRFTISRDNPKNTVNLQINSLIPDDTAVYYCARDVDYYISSPTPPVVELDYWGQGTQVTVSS | low polyreactivity
QVQLVESGGGLVQAGGSLRVSCAASGIIFDYYVMGWYRQAPGQERELVAAISRSCDRTNYADSVKGRFTISRDNAKNTVYLQMNSLKPEDTAVYYCAARVSIRGGGYEYWGQGTQLTVSS | high polyreactivity
QVQLVESGGGLVQAGGSLRVSCAASGLTFGDYTMGWYRQAPGKERELVAAISTAGGSTYYADSVKGRFTISREHANNTVYLHMNSLKPEDTAVYYCNARRTHTRSHYYYWGQGTQVTVSS | high polyreactivity
QVQLVESGGGLVQAGGSLRVSCAASGRIFASYAMGWYRQAPGKERELVAAISLSGGSTYYADSVKGRFTISRDNAKNTVFLQMNSLKPEDTAVYYCAAKNYRRYRDYYWGQGTQVTVSS | high polyreactivity
QVQLVESGGGLVQAGGSLRVSCAASGRIFKSNAMGWYRPAPGKERELVASSTASGGRTYYADSVKGRFTISRDNAKNTVYLQMNSLKPEDTAVYYCAAGRPFSKYGYWGQGTQVTVTS | high polyreactivity
QVQLVESGGGLVQAGGSLRVSCAASGRILPRYAMGWYRQAPGKEREFVARIDSGGSTNYADSVKGRFTISRDNAKNTVYIQMNSLKPEDTAVYYCAAVGTAQAYAYFTYGYDYWGQGTQVTVSS | low polyreactivity
QVQLVESGGGLVQAGGSLRVSCAASGRTFIKYAMGWYRQAPGKERELVAAISRNGGSTNYADSVKGRFTISRDNAKNTVYFQMNSLKPEDTAVYYCAAVGTVSRTVGYNYWGQGTQVTVSS | high polyreactivity
QVQLVESGGGLVQAGGSLRVSCAASGRTFLSYTMGWYRPAPGKERQLVARISASGGSTYYADSVKGRFTISRDNAKITVYLQMNSLKPEDTAVYYCARVPYYLYYVTRPYDYWGQGTLVTVSS | low polyreactivity
QVQLVESGGGLVQAGGSLRVSCAASGSIFGPYAMGLYRQAPGKERELVATSTYYADSVKGRFTISRDNAKNTVYLQMHRLKPEDTAVYYCAKTPYYSGYGWGYDYWGQGTQVTVSS | low polyreactivity
QVQLVESGGGLVQAGGSLRVSCAASGSIFGTYAMGWYRPAPGKERELVAAITSDGVDTYYADSVKGRFTISRDNAKNTVYLQMNSLKPEDTEVYYCAAEYEGLYGYGYWGQGTQVTVSS | high polyreactivity
QVQLVESGGGLVQAGGSLRVSCAASGSIFKIYAMGWYRLAPGKERELVASITGSGGSTYYADSVKGRFTISRDNAKNTVYLQRNCLKPEDTAVYYCAAAVLGSSKSEVDPDRPEYYYWGQGTQVTVSS | low polyreactivity
QVQLVESGGGLVQAGGSLRVSCAASGSIFLIYGMGWYRQAPGKERELVAAITARGGSTYYADSVKGRFTISRDNAKNTVYLQMNSLKPEDTAVYYCNADGYPDVGAGTYGYWGLGTQVTVSS | low polyreactivity
QVQLVESGGGLVQAGGSLRVSCAASGSIFYTYVMGWYREAPGKERELVAAISGTGGRTYYADSVKGRFTISRDNAKNTVYLQMNSLKPEDTAVYYCAALYNRVNGHYYWGQGTQVTVSS | high polyreactivity
QVQLVESGGGLVQAGGSLRVSCAASGSSFTYNAMGWYRQAPGKERELVASINSRGGTTYYADSVKGRFTISRDNAKNTVYFQMNSLKPEDTAVYYCATDVYRLGEYDYWGQGTQVTVSS | low polyreactivity
QVQLVESGGGLVQAGGSLRVSCAASGSTFRHYAMGWSRQAPGKEWELVAAISSTGGSTYYADSVKGRFTISRDNAKNTVYLQMNSLKPEDTAVYYCAARRLYWGQGTQVTVSS | high polyreactivity
QVQLVESGGGLVQAGGSLRVSCAASGSTFTDYDMVWYRQAPGKERELVAAITSGGSTNYADSVKGRFTISRDNAKNTVYLHMNSLKPEDTAVYYCNAERDSPTLNLDRGWEYDYWGQGTQVTVSS | low polyreactivity
QVQLVESGGGLVQAGGSLRVSCAASGSTFTWYAMGWYRQAPGKVRELVAAIRWSGGNTYYADSVKGRFTISRDNAKNTVFLQMNSLKPEDTAVYYCNAYQYFPRYDYWGQGTQVTVSS | high polyreactivity
QVQLVESGGGLVQAGGSLRVSCAASGSTFYIYAMGWSRQAPGKERELVARISGSGGSTYYADSVKGRFTISRDYAKNTVYLLMNSLKPEDTAVYYCAADDIYKYYQYYAFPYSRYDYWGQGTQLTVSS | low polyreactivity
QVQLVESGGGLVQAGGSLRVSCAASGYTFLRYAMGWYRQAPGKERELVAAISWSTGSTYYADSVKGRFTISRDNAKNTVYLQMNSLKPEDTAVYYCAAAGRHSGGRFYYWGQGTQVTVSS | high polyreactivity
QVQLVESGGGLVQAGGSLRVSCAASVRTLFGNALGWYRQAPGKERELLAAISFSGGRTEYADSVKGRFTISRDNAMNTVYLQMNSLKPEDTAVYYCAARTYSAPRNRYYYWGQGTQVTVSS | high polyreactivity
QVQLVESGGGLVQAGGSLRVSCASSGRIFVYDMGWYRQAPGKERELVAAITRGGSTKYADSVKGRFTISRDNAKNTVFLQMNSLKPADTAVYYCAADTRRYRFYYWGQGTQVSVSS | high polyreactivity
QVQLVESGGGLVQAGGSLRVSCASSGSTFVSYAMVWYRQAPGKERELVASISGSDGRTYYADSVKGRFTISRDNAKNTVYLQMKSLNPEDTAVYYCAKRYWRHPVFYLYDYWVQGTQVTVSS | high polyreactivity
QVQLVESGGGLVQAGGSLRVSSAASGRIFSIYAMGWYRQAPGKERELVAAISFRGTSTYADSVKGRFTISRDNAKNTVYLQMNSLKPEDTAVYFCAVSGFDVLWPSLGGELDYWGQGTQVTVSS | low polyreactivity
QVQLVESGGGLVQAGGSLRVSSAASGSIFDYYEMGWYRQAPGKEREMVAAINISGGDTYYADSVKGRFTISRDNAKNTVYLQMNSLNPEDTAVYYCAADWVTWWFSRVGWDYGYWGQGTQVTVSS | low polyreactivity
QVQLVESGGGLVQAGGSLRYSCAASGSIFYWYAMGWDRQAPGKERELVAGITYSGGNTYYADSVKGRFTISRDNAKNTVYLQMNSLKPEDTAVYDCAATRGYWRKWRMDYWGQGTQVTVSS | high polyreactivity

— the nanobody polyreactivity screen of Harvey et al. (2022)
